Values quoted from earlier work as cited in article PMC7556843.
pKd: −log10 of the molar value.

Columns and labels:
[1] = target: linear diubiquitin (Ub2) (Homo sapiens) (UniProt P0CG47)
[2] = target: linear tetraubiquitin (Ub4) (Homo sapiens) (UniProt P0CG47)

Chain of NEMO 242-419 (Q9Y6K9 242-419): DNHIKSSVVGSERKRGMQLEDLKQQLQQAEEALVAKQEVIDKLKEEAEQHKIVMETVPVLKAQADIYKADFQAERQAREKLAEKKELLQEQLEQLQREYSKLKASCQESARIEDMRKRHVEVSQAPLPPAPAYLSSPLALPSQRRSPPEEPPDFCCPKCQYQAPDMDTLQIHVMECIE

pKd [1]: 5.52
pKd [2]: 6.52
Substance: NEMO 242-419 (from UniProt Q9Y6K9)
